Assay results taken from patent US20260055162A1.
Each block holds one substance with its values, some of them ahead of it.

Tests used:
Test in all cases: cell-based or functional assay
[1] = target: AA-SR-112 (SR-112), TACTILE ECD-TACTILE TM-CD3z ICD
[2] = target: AA-SR-127 (SR-127), TACTILE ECD-CD28 TM-CD3z ICD
[3] = target: AA-SR-126 (SR-126), PD1 ECD-CD28 TM-CD3z ICD
[4] = target: AA-SR-111 (SR-111), PD1 ECD-PD1 TM-CD3z ICD
[5] = target: AA-SR-106 (SR-106), IL10RA ECD-IL10RA TM-CD3z ICD
[6] = target: AA-SR-121 (SR-121), IL10RA ECD-CD28 TM-CD3z ICD
[7] = target: AA-SR-115 (SR-115), BTLA ECD-CD28 TM-CD3z ICD
[8] = target: AA-SR-100 (SR-100), BTLA ECD-BTLA TM-CD3z ICD
[9] = target: AA-SR-124 (SR-124), GP130 ECD-CD28 TM-CD3z ICD
[10] = target: AA-SR-109 (SR-109), GP130 ECD-GP130 TM-CD3z ICD
[11] = target: AA-SR-113 (SR-113), TIGIT ECD-TIGIT TM-CD3z ICD
[12] = target: AA-SR-128 (SR-128), TIGIT ECD-CD28 TM-CD3z ICD
Sequence of AA-SR-128 (SR-128), TIGIT ECD-CD28 TM-CD3z ICD (chain, as listed by the source limits assumed, form in doubt): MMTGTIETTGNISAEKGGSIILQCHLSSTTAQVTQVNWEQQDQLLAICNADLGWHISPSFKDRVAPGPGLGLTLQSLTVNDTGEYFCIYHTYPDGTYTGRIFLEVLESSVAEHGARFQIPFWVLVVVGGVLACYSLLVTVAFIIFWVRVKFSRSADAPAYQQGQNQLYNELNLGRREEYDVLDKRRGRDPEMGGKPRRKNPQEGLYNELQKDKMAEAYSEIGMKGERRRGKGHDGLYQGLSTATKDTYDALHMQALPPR

Sequence of AA-SR-124 (SR-124), GP130 ECD-CD28 TM-CD3z ICD (chain, as listed by the source limits assumed, form in doubt): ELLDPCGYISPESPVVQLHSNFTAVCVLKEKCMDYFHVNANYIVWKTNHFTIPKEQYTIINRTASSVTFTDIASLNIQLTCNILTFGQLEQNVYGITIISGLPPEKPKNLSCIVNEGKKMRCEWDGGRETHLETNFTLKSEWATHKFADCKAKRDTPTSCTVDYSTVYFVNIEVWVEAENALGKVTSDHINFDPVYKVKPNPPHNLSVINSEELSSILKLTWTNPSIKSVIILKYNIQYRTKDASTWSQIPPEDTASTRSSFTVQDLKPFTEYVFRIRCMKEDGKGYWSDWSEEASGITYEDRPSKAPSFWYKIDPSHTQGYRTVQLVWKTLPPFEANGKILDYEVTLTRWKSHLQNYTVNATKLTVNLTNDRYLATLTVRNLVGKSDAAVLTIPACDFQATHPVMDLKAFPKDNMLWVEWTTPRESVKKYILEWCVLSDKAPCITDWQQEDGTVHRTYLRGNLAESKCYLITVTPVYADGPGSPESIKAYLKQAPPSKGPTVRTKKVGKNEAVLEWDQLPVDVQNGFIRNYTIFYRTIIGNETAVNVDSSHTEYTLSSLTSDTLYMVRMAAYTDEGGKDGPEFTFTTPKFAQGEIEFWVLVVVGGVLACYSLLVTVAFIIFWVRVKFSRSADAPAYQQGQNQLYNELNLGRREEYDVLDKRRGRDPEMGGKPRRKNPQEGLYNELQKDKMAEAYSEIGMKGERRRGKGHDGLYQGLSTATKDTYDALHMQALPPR
Sequence of AA-SR-111 (SR-111), PD1 ECD-PD1 TM-CD3z ICD (chain, as listed by the source limits assumed, form in doubt): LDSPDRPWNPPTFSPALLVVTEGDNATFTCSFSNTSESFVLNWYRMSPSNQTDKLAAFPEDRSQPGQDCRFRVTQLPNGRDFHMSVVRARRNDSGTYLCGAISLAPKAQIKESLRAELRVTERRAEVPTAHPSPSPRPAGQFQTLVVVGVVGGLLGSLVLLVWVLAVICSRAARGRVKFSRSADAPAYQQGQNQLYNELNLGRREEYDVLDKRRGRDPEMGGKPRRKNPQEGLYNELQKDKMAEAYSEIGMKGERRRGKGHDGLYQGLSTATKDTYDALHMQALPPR
Sequence of AA-SR-121 (SR-121), IL10RA ECD-CD28 TM-CD3z ICD (chain, as listed by the source limits assumed, form in doubt): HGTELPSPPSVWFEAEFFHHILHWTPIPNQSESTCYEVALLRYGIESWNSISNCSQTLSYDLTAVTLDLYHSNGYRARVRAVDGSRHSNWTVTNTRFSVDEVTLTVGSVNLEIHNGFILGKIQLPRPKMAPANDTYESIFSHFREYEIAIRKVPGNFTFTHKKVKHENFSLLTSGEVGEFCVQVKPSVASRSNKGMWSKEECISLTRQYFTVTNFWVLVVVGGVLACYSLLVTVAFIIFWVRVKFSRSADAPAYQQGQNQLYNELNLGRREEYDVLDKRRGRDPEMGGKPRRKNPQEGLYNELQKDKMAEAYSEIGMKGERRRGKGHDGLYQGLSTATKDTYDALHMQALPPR
Sequence of AA-SR-106 (SR-106), IL10RA ECD-IL10RA TM-CD3z ICD (chain, as listed by the source limits assumed, form in doubt): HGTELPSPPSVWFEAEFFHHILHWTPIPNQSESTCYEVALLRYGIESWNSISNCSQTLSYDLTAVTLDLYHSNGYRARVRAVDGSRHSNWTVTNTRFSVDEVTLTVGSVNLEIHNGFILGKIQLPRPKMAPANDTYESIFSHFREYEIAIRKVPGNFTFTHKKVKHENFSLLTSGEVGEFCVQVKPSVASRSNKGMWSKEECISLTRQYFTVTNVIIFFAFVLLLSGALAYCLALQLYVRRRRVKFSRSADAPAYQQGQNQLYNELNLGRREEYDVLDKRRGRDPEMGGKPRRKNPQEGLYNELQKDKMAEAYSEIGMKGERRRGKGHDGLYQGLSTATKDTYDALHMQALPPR
Sequence of AA-SR-100 (SR-100), BTLA ECD-BTLA TM-CD3z ICD (chain, as listed by the source limits assumed, form in doubt): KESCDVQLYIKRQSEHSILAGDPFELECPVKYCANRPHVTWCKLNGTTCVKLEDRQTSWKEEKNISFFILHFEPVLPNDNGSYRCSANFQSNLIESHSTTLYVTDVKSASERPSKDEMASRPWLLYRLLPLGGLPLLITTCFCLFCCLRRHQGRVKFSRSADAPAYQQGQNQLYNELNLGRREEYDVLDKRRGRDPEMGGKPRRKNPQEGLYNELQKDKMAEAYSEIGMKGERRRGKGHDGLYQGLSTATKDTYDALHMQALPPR
Sequence of AA-SR-127 (SR-127), TACTILE ECD-CD28 TM-CD3z ICD (chain, as listed by the source limits assumed, form in doubt): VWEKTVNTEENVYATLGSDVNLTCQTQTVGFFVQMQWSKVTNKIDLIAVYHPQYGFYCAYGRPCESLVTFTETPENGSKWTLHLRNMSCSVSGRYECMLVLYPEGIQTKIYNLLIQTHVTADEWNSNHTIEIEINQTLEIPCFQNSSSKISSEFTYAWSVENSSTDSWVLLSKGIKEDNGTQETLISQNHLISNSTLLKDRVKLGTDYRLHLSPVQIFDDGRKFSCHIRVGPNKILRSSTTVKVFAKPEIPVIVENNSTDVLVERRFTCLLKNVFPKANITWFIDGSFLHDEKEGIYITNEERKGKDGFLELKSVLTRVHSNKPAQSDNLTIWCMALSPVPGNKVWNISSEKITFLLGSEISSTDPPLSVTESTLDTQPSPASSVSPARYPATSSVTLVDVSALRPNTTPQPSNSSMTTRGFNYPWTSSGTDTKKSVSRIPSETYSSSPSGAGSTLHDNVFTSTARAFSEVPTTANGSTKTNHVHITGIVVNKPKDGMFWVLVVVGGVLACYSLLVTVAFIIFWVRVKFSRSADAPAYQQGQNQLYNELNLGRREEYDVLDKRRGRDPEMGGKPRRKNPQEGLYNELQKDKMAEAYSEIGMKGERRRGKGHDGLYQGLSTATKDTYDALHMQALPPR
Sequence of AA-SR-113 (SR-113), TIGIT ECD-TIGIT TM-CD3z ICD (chain, as listed by the source limits assumed, form in doubt): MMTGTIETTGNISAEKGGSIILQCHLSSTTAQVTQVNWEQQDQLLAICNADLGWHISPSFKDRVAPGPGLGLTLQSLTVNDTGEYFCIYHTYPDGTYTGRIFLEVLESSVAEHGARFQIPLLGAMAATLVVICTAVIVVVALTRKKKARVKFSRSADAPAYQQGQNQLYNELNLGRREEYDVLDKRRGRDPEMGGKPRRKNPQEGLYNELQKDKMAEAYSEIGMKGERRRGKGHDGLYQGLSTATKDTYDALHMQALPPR
Sequence of AA-SR-126 (SR-126), PD1 ECD-CD28 TM-CD3z ICD (chain, as listed by the source limits assumed, form in doubt): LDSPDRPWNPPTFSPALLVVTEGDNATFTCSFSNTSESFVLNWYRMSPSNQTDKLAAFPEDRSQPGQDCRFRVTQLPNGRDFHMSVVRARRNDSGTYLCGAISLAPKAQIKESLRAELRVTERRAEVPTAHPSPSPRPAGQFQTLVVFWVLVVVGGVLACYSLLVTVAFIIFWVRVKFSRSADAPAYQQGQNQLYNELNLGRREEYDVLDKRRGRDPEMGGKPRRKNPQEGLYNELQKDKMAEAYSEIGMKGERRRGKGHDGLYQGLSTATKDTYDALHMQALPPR
Sequence of AA-SR-115 (SR-115), BTLA ECD-CD28 TM-CD3z ICD (chain, as listed by the source limits assumed, form in doubt): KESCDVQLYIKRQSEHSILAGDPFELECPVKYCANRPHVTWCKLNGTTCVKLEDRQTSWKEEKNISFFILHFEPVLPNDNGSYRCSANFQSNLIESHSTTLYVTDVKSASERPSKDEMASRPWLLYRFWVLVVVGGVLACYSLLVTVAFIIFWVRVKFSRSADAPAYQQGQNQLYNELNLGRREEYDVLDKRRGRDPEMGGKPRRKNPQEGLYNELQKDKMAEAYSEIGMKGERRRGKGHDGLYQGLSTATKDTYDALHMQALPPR
Sequence of AA-SR-112 (SR-112), TACTILE ECD-TACTILE TM-CD3z ICD (chain, as listed by the source limits assumed, form in doubt): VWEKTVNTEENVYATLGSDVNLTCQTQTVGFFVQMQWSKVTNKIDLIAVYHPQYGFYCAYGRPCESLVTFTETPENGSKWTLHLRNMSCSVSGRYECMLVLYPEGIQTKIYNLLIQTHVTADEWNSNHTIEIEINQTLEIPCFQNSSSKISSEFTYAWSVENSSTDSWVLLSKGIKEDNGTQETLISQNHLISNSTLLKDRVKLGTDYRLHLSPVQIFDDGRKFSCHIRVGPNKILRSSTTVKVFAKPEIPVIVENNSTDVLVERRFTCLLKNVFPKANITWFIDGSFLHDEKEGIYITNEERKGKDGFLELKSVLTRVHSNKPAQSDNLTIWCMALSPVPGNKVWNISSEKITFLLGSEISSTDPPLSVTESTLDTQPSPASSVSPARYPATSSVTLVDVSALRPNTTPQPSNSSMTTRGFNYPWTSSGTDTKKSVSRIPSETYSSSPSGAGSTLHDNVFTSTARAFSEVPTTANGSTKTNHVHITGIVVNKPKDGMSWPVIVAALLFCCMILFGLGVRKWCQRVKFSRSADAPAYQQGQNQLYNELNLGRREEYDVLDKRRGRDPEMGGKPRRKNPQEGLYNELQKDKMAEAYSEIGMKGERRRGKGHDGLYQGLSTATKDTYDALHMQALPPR

CD69, fold-change of MFI over no stimulation, High (10 ug/mL) [1]: 3.9 fold | CD69, fold-change of MFI over no stimulation, Low (0.4 ug/mL) [1]: 3.3 fold | CD69, fold-change of MFI over no stimulation, Med. (2 ug/mL) [1]: 1 fold | GFP, fold-change of MFI over no stimulation, High (10 ug/mL) [1]: 1.2 fold | GFP, fold-change of MFI over no stimulation, Low (0.4 ug/mL) [1]: 1 fold | GFP, fold-change of MFI over no stimulation, Med. (2 ug/mL) [1]: 0.9 fold | CD69, fold-change of MFI over no stimulation, High (10 ug/mL) [2]: 2 fold | CD69, fold-change of MFI over no stimulation, Low (0.4 ug/mL) [2]: 1.1 fold | CD69, fold-change of MFI over no stimulation, Med. (2 ug/mL) [2]: 1.1 fold | GFP, fold-change of MFI over no stimulation, High (10 ug/mL) [2]: 1 fold | GFP, fold-change of MFI over no stimulation, Low (0.4 ug/mL) [2]: 1 fold | GFP, fold-change of MFI over no stimulation, Med. (2 ug/mL) [2]: 0.8 fold
Substance: anti-CD96 mAb clone NK92.39 (antibody)

CD69, fold-change of MFI over no stimulation, High (10 ug/mL) [3]: 27.3 fold | CD69, fold-change of MFI over no stimulation, Low (0.4 ug/mL) [3]: 1.1 fold | CD69, fold-change of MFI over no stimulation, Med. (2 ug/mL) [3]: 1.7 fold | GFP, fold-change of MFI over no stimulation, High (10 ug/mL) [3]: 5.5 fold | GFP, fold-change of MFI over no stimulation, Low (0.4 ug/mL) [3]: 0.9 fold | GFP, fold-change of MFI over no stimulation, Med. (2 ug/mL) [3]: 1.2 fold | CD69, fold-change of MFI over no stimulation, High (10 ug/mL) [4]: 37.6 fold | CD69, fold-change of MFI over no stimulation, Low (0.4 ug/mL) [4]: 1.2 fold | CD69, fold-change of MFI over no stimulation, Med. (2 ug/mL) [4]: 1.9 fold | GFP, fold-change of MFI over no stimulation, High (10 ug/mL) [4]: 5.8 fold | GFP, fold-change of MFI over no stimulation, Low (0.4 ug/mL) [4]: 1.3 fold | GFP, fold-change of MFI over no stimulation, Med. (2 ug/mL) [4]: 1.4 fold
Substance: anti-PD-1 mAb clone EH12.2H7 (antibody)

CD69, fold-change of MFI over no stimulation, High (10 ug/mL) [5]: 56.8 fold | CD69, fold-change of MFI over no stimulation, Low (0.4 ug/mL) [5]: 4.9 fold | CD69, fold-change of MFI over no stimulation, Med. (2 ug/mL) [5]: 29.5 fold | GFP, fold-change of MFI over no stimulation, High (10 ug/mL) [5]: 11.4 fold | GFP, fold-change of MFI over no stimulation, Low (0.4 ug/mL) [5]: 0.8 fold | GFP, fold-change of MFI over no stimulation, Med. (2 ug/mL) [5]: 3.3 fold | CD69, fold-change of MFI over no stimulation, High (10 ug/mL) [6]: 14.3 fold | CD69, fold-change of MFI over no stimulation, Low (0.4 ug/mL) [6]: 2.2 fold | CD69, fold-change of MFI over no stimulation, Med. (2 ug/mL) [6]: 7.9 fold | GFP, fold-change of MFI over no stimulation, High (10 ug/mL) [6]: 5.4 fold | GFP, fold-change of MFI over no stimulation, Low (0.4 ug/mL) [6]: 1.1 fold | GFP, fold-change of MFI over no stimulation, Med. (2 ug/mL) [6]: 2.9 fold
Substance: anti-IL-10RA mAb clone 37607 (antibody)

CD69, fold-change of MFI over no stimulation, High (10 ug/mL) [7]: 9.2 fold | CD69, fold-change of MFI over no stimulation, Low (0.4 ug/mL) [7]: 10.8 fold | CD69, fold-change of MFI over no stimulation, Med. (2 ug/mL) [7]: 14.1 fold | GFP, fold-change of MFI over no stimulation, High (10 ug/mL) [7]: 3.5 fold | GFP, fold-change of MFI over no stimulation, Low (0.4 ug/mL) [7]: 5.1 fold | GFP, fold-change of MFI over no stimulation, Med. (2 ug/mL) [7]: 6.9 fold | CD69, fold-change of MFI over no stimulation, High (10 ug/mL) [8]: 125 fold | CD69, fold-change of MFI over no stimulation, Low (0.4 ug/mL) [8]: 62.7 fold | CD69, fold-change of MFI over no stimulation, Med. (2 ug/mL) [8]: 124 fold | GFP, fold-change of MFI over no stimulation, High (10 ug/mL) [8]: 13 fold | GFP, fold-change of MFI over no stimulation, Low (0.4 ug/mL) [8]: 6.1 fold | GFP, fold-change of MFI over no stimulation, Med. (2 ug/mL) [8]: 7.5 fold
Substance: anti-BTLA mAb clone MIH26 (antibody)

CD69, fold-change of MFI over no stimulation, High (10 ug/mL) [9]: 64.1 fold | CD69, fold-change of MFI over no stimulation, Low (0.4 ug/mL) [9]: 1.8 fold | CD69, fold-change of MFI over no stimulation, Med. (2 ug/mL) [9]: 40.7 fold | GFP, fold-change of MFI over no stimulation, High (10 ug/mL) [9]: 3 fold | GFP, fold-change of MFI over no stimulation, Low (0.4 ug/mL) [9]: 0.5 fold | GFP, fold-change of MFI over no stimulation, Med. (2 ug/mL) [9]: 3.9 fold | CD69, fold-change of MFI over no stimulation, High (10 ug/mL) [10]: 123 fold | CD69, fold-change of MFI over no stimulation, Low (0.4 ug/mL) [10]: 1.1 fold | CD69, fold-change of MFI over no stimulation, Med. (2 ug/mL) [10]: 22 fold | GFP, fold-change of MFI over no stimulation, High (10 ug/mL) [10]: 6.3 fold | GFP, fold-change of MFI over no stimulation, Low (0.4 ug/mL) [10]: 0.5 fold | GFP, fold-change of MFI over no stimulation, Med. (2 ug/mL) [10]: 2.6 fold
Substance: anti-gp130 mAb clone 28126 (antibody)

CD69, fold-change of MFI over no stimulation, High (10 ug/mL) [11]: 17.1 fold | CD69, fold-change of MFI over no stimulation, Low (0.4 ug/mL) [11]: 7.2 fold | CD69, fold-change of MFI over no stimulation, Med. (2 ug/mL) [11]: 17.1 fold | GFP, fold-change of MFI over no stimulation, High (10 ug/mL) [11]: 4.6 fold | GFP, fold-change of MFI over no stimulation, Low (0.4 ug/mL) [11]: 0.9 fold | GFP, fold-change of MFI over no stimulation, Med. (2 ug/mL) [11]: 2.2 fold | CD69, fold-change of MFI over no stimulation, High (10 ug/mL) [12]: 3.4 fold | CD69, fold-change of MFI over no stimulation, Low (0.4 ug/mL) [12]: 1.2 fold | CD69, fold-change of MFI over no stimulation, Med. (2 ug/mL) [12]: 2.6 fold | GFP, fold-change of MFI over no stimulation, High (10 ug/mL) [12]: 1.7 fold | GFP, fold-change of MFI over no stimulation, Low (0.4 ug/mL) [12]: 0.6 fold | GFP, fold-change of MFI over no stimulation, Med. (2 ug/mL) [12]: 1.2 fold
Substance: anti-TIGIT mAb clone A15153G (antibody)
